This experiment addresses recombinant His-tagged canine interleukin-13 (cIL-13) (canine) (UniProt Q9N0W9). Description: cell-based or functional assay.

recombinant His-tagged canine interleukin-13 (cIL-13) (canine), sequence (Q9N0W9 other isoform, or with tags, fused parts or gaps): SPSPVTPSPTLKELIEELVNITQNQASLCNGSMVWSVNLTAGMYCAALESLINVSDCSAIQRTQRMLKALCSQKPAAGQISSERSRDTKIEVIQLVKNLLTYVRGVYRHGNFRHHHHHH

B1: mouse monoclonal antibody 32A10-#20 (antibody, from another filing, V domains shown)
VH: EVQLQQSGPELVKPGASVKVSCKTSGYSFTDYPIYWVRQSHGESLEWIGYIDPYNGGTTYNQNFKDKATLTVDKSSSTAFMHLNSLTSEDSAVYFCATAVVATDVMENWGQGTSVTVSS
VL: DIVLTQSQKFMSTSVGDRVSITCKASQNVRNAVAWFQQKPGQSPKALIYLASNRYTGVPDHFTGSGSGTDFTLTISNVQSEDLADYFCLQHWNYPLTFGAGTKLELK
B1: the IL-13-dependent TF-1 cell proliferation inhibition IC50 is 2.9 to 4.2 nM and the Inhibitory Activity on TF-1 Cell Proliferation, IC50 amounted to 3.97 nM.

These data come from patent EP4671274A1.
